In assay [1] the target is T1, 2PT-NBD1 (human CFTR nucleotide-binding domain 1, residues 387-646, with S492P, A534P, I539T) (human, UniProt P13569 388-646, biotinylated for the ELISA (sites not given)).
T1 construct: N-terminal His6-SUMO tag removed with Ulp1; In the T2a-T4 and T27 crystals the domain was cut by papain or subtilisin
Put plainly: isothermal titration calorimetry, nanobody titrated into 2PT-NBD1 at 20 °C, one-site model. As to the method: Isothermal titration calorimetry (ITC) was used to characterize the thermodynamic parameters of the binding (FIG. 1e and FIG. 9). […] These KD values are similar to those measured for other in vivo matured camelid heavy-chain antibodies interacting with their ligands^{[20]}. The thermodynamic parameters of the interaction of nanobodies with 2PT-NBD1 were determined based on these ITC measurements (FIG. 1e and FIG. 9).
Interactions between nanobodies and 2PT-NBD1 was carried out on NanoITC system (TA Instruments) in 0.165 ml cells at 20° C., 300 rpm syringe stirring. Proteins were extensively dialyzed in 20 mM Hepes buffer pH 7.5, 150 mM NaCl, 10% (w/v) glycerol, 10% (w/v) ethylene glycol, 2 mM ATP and 3 mM MgCl₂ for 16 h at 4° C. Heat of dilution from control experiments of each nanobody titrated into buffer was subtracted from the titration into 2PT-NBD1. Data were integrated analyzed with Origin 7.0 software (Origin Lab Corp.).
A general note: ITC needs no label: the signal is the heat of the interaction.

For assay [2], the target named is T1, 2PT-NBD1 (human CFTR nucleotide-binding …). As to the kind of experiment: ELISA, biotinylated 2PT-NBD1 on avidin-coated plate, nanobody titrated, anti-His detection; column head 'pEC50 (M)'. As to the method:
(a) Nanobody binding to 2PT-NBD1 measured by ELISA. Biotinylated 2PT-NBD1 was immobilized on avidin-coated plates and incubated with increasing concentration of each nanobody. Binding of nanobody was followed by immunodetection of the His-tag (see Methods). Representative curve of 3 independent experiments is shown. Error bars represent the standard deviation (SD) of duplicates. Data were normalized to maximum signal for each nanobody separately. (b) Nanobody binding to F508del-2PT-NBD1 measured by ELISA as described in panel a. (c) Nanobody T4 binding to 2PT-NBD1 and F508del-2PT-NBD1. Data were normalized to maximum signal of T4 binding to 2PT-NBD1. (d) Nanobody T8 binding to 2PT-NBD1 and F508del-2PT-NBD1. Data were normalized to maximum signal of T8 binding to 2PT-NBD1.
For dose-response assays, Nunc MaxiSorp 96-well plates (ThermoScientific), were coated with 5 μg/ml NeutrAvidin Biotin-Binding protein (ThermoScientific) overnight at 4° C. and blocked 2 h at room temperature (RT) with 2% milk in phosphate-buffered saline (PBS). Each new reagent addition was preceded by three washes with 200 μl of NBD1 buffer (20 mM HEPES pH 7.5, 150 mM NaCl, and 10% (w/v) glycerol, 10% (w/v) ethylene glycol, 2 mM ATP, 3 mM MgCl₂). Then, biotinylated purified NBD1 proteins at 5 μg/ml were immobilized 30 min at RT followed by 1 h RT incubation with 100 μl various concentrations (0-20 μg/ml) of purified nanobodies. Signal detection was followed using His-tag specific antibody (Invitrogen, catalogue number: MA1-135, 1:3000 dilution) to detect the nanobodies and secondary antibody anti-mouse coupled to horse radish peroxidase (HRP) (Millipore, catalogue number: AP308P, 1:5000 dilution). 50 μl of 1-Step UltraTMB-ELISA (ThermoScientific) was used as a substrate for the peroxidase and intensity of the reaction was proportional to absorbance measured at 450 nm with SynergyMx (BioTek) after addition of 50 μl H₂SO₄ at 1M.
On the technique in general: ELISA stands for enzyme-linked immunosorbent assay.

Assay [3] deals with T2, 2PT-F508del-CFTR expressed in BHK-21 cells (human, UniProt P13569 1-1480, I539T; S492P; A534P; F508del).
T2 construct: Full-length F508del CFTR stabilized by the three point mutations; permeabilized cells in flow cytometry
T2 sequence (P13569 other isoform, or with tags, fused parts or gaps I539T/S492P/A534P/F508del): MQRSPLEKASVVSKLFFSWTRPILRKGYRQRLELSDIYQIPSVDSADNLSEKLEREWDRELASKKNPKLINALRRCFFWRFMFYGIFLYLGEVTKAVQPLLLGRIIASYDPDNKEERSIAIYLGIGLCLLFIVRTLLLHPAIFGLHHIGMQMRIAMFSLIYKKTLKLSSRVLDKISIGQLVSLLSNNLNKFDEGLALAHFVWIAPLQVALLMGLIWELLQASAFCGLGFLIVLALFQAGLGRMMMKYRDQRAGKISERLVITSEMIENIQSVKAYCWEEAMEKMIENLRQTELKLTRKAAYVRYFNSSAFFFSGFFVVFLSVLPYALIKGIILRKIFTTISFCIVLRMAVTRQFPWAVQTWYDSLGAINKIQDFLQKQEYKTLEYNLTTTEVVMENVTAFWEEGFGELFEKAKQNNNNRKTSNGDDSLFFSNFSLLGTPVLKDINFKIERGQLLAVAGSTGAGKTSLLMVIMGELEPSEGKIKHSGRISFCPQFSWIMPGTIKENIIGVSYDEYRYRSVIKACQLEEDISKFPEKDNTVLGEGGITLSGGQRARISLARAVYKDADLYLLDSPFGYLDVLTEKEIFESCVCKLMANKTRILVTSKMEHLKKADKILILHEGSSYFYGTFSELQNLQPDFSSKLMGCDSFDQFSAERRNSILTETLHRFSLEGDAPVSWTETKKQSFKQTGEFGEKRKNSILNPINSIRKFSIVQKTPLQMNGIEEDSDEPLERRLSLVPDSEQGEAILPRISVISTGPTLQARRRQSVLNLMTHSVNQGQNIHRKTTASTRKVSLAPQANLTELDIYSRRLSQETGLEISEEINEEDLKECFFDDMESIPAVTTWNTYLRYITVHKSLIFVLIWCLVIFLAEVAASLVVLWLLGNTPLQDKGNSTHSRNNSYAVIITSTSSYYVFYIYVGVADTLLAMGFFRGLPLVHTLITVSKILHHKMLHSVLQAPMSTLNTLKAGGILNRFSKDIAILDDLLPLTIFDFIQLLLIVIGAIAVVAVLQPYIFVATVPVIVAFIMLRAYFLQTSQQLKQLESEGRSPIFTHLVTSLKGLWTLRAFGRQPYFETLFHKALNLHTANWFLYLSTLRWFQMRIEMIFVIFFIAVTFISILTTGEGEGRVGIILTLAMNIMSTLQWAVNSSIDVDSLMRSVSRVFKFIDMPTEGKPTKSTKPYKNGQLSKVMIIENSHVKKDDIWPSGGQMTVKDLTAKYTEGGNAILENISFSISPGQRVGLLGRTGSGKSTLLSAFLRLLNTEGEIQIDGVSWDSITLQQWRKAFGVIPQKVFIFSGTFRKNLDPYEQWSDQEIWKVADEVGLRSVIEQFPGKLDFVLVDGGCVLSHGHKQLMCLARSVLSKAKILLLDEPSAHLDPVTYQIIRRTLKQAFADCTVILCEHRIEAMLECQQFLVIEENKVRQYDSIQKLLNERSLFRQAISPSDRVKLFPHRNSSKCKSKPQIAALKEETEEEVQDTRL
Put plainly: flow cytometry on permeabilised BHK-21 cells expressing 2PT-F508del-CFTR, anti-tag antibody and Alexa Fluor 488 secondary. The text has this: Graph depicts one representative of at least three independent experiments. (FIG. 4F) Average median fluorescence (fold over negative control) for each of the three representative nanobodies as illustrated in (FIG. 4D) and (FIG. 4E). Quantification of at least 3 independent experiments (±SEM). (g) Immunoblot of CFTR from solubilized BHK-21 cells pulled-down with His-tagged nanobodies, including a non-CFTR nanobody as a control. Eluted nanobodies-CFTR complexes were separated by SDS-PAGE and presence of CFTR was detected with mAb 596 antibody after immunoblotting. Arrows indicate the mature (band C) and immature (band B) forms of CFTR. Representative of at least 3 independent experiments. (FIG. 4H) Flow cytometry analysis of nanobodies T2a, T8 and G3a on BHK-21 cells expressing 2PT-F508del showing increased labelling for T2a and G3a, but not T8. (FIG. 4I) Quantification of data illustrated in […]. Average of 3 independent experiments (±SEM).
Parental BHK-21 cells (ATCC; CCL-10) and cells stably overexpressing human wt-CFTR^{[43,44,47]} or 2PT-F508del-CFTR, as described above, were permeabilized with 0.01% n-Dodecyl-β-D-Maltopyranoside β-DDM—Inalco) at least for 2 h on ice. In the meantime, cells were incubated with 50 μg/ml nanobodies and DRAQ7 (0.3 μM—Biostatus) to monitor the permeabilization state. Nanobody binding was detected by using His-tag specific antibody (Invitrogen, catalogue number MA1-135, 1 μg/ml) or Myc-tag specific antibody (Invitrogen, catalogue number 13-2500, 2 μg/ml) and then anti-mouse-Alexa Fluor 488 (Invitrogen, catalogue number A11001, 1.3 μg/ml) at least for 30 min on ice. Cells were washed one time between each step by centrifugation (200×g for 5 min at 4° C.). All incubations (100 μl) and washes (1.5 ml) were performed in PBS with 6% fetal bovine serum (FBS) and 0.01%13-DDM on ice. Cells fluorescence was measured with Gallios Flow Cytometer (Beckman Coulter). Data were analyzed with Kaluza software.

Data on 2 molecules can be found in US20220289837A1 (VIB VZW, published 2022).

T1 sequence (P13569 388-646 V470M/S492P/A534P/I539T limits assumed): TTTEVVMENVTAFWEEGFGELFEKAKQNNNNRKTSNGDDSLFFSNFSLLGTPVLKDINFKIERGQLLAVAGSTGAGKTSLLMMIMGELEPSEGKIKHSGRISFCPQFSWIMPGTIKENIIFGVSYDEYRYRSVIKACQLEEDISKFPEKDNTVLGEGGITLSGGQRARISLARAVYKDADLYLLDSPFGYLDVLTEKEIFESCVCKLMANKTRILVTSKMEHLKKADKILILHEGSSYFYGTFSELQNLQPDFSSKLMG

B1: Nanobody T8 (VHH, not shown: small tags and cut ends)
VHH: QVQLQESGGGLVQPGGSLRLSCAASGSTSSINAMGWYRQAPGKQREPVAISSSGGDTRYAEPVKGRFTISRDNAQNKVYLQMNSLKPEDTAVYYCWLNWGRTSVNSWGQGTQVTVSS
notes: Llama nanobody; also called Nb T8; T8 Nb
Turning to B1, in assay [1], binding was characterised by a dissociation constant (Kd) of 39 nM. In addition, the pEC50 in assay [2] came to 7.9. Further, the binding result in assay [3] was “no binding”.

B2: Nanobody T2a (VHH, not shown: small tags and cut ends)
VHH: QVQLQESGGGLVQAGGSLRLSCAASGSIFRIDAMGWYRQAPGKQRELVAHSTSGGSTDYADSVKGRFTISRDNAKNTVYLQMNSLKPEDTAVYYCNADVRTRWYASNNYWGQGTQVTVSS
notes: Llama nanobody; also called Nb T2a; T2a Nb
B2 showed a dissociation constant Kd in assay [1] of 54 nM. In addition, in assay [2], the pEC50 was determined as 7.9. The binding result in assay [3] is “binds”.

The term Kd denotes the equilibrium constant for the complex coming apart. Read a low Kd as higher affinity. What is called pEC50 is the EC50 on a negative log10 scale, so that one unit is a factor of ten.
